Substrate: CC(C)=CCC/C(C)=C/CC/C(C)=C/CO[P@@](=O)(O)OP(=O)(O)O
Assay: purified protein
Format: biochemical, Streptomyces avermitilis
Settings: MgCl2; labelled compound ([1-3H]FPP)

B1: SAV_76 (avermitilol synthase) (Streptomyces avermitilis MA-4680 = NBRC 14893) (protein)
chain: MPQDIDFGLPAPAGISPGLEATRRHNLGWVRRLGLVGDGPSLAWYTSWDMPRLAACGFPHARGAALDLCADAMAFFFVFDDQFDGPLGRDPARAARVCRRLTGIVHGAGPGPGADACSAAFADVWARSTDGAHPGWVARTAHEWEYYFAAQAHEAINRLRGTPGDMESYLQVRRGIAGTDLPLSLGERAAGITVPAAAFHSPQLRIMREAAIDVTLMCNDVYSLEKEEARGDMDNLVLVIEHARRCTRDEAVTAARGEVARRVIRFEQLAREVPALCAQLGLSAVERAHVDTYLGVMEAWMSGYHAWQTQTRRYTGAPHVLPSTGPGYFDEVLPT
Km: 1.06 ± 0.11 µM | kcat: 0.040 ± 0.001 s⁻¹

Source: article PMC2904616
